This is an account of results in US9757451B2, “Use of RANK/RANKL antagonists for treating muscular dystrophy” (UNIVERSITÉ LAVAL, priority 2011, dated 2017).

The subject of series [1] is C2C12 myotubes. Kind of series: Dexamethasone-induced myotube atrophy (myotube diameter) in vitro. Format: cell-based, mouse. The protocol:
FIG. 9. […] Myotubes were incubated with DEX (1,000 nM) and/or OPG at 10 ng/mL or 100 ng/mL. OPG used and tested in vivo and in vitro was bought from R&D systems (Catalog number:459-MO).
To further investigate how RANK/RANKL influences muscle function, the present inventor(s) have assessed the effect of DEX on C2C12 myoblasts grown in DMEM containing 10% FBS and 1% antibiotic-antimycotic in 96-well plates at a density of 3,000 myoblasts/well. The present inventor(s) used this mouse myoblast cell line because the present inventor(s) are very familiar with it and because it easily differentiates into myotubes and responds to RANKL stimulation. Confluent myoblasts on coverslips (approximately 300,000/well) were incubated in DMEM containing 2% horse serum for five days to allow them to differentiate into myotubes. The myotubes were then exposed to […]. This concentration was sufficient to induce a 15-20% decrease in myotube diameter relative to control myotubes after 48 h. Myotubes in other wells were treated or not with 1 mM DEX combined with 100 ng/ml of OPG. In the experiment proposed herein, myotube atrophy were determined by measuring the diameters of the myotubes at 100× magnification using a light microscope (Nikon). Three different sites in each well were blindly identified and observed throughout the experiment. The average were considered as a single value. Myotube diameters were quantified using the ImageJ digital imaging system (NIH). The diameters of 150 to 200 myotubes per well were measured after 24 and 48 h. Measurements were performed in triplicate for all the experimental conditions to enable statistical comparisons between groups.

For series [2] the following is noted: cited from earlier work.
In another series the test system is mdx mice. In words: Contractile and physical properties of SOL and EDL muscles of mdx mice injected with OPG. The conditions noted are these: for half relaxation time (½ RT) / maximal absolute force (Po) / maximal twitch tension (Pt) / time to peak tension (TPT) / Muscle weight: mdx, mean +/- sem. Type of series: in vivo. From the text:
(§1) Muscle contractility measurements were used to test the involvement of the RANK/RANKL pathway in muscle dysfunction. In vitro measurements of muscle contractility are the gold standard for assessing muscle function and were be performed as described previously^68,69. […] Twitch and tetanic contractions were elicited, and the following measurements recorded: maximum twitch tension (Pt), time to peak tension (TPT), one-half relaxation time (RT 1/2), and maximum tetanic tension (Po). To assess muscle fatigue, EDL and SOL muscles from RANK^fl/fl and RANK^del/fl mice were stimulated at 1 train/s at 50 Hz, and the time to the loss of 30% of their initial force recorded. […] Consistent with this observation that RANK^del/fl mice expressed a faster muscle phenotype than wild type, SOL and EDL muscles from these mice were less resistant to a fatigue protocol (FIGS. 5,6). The muscles were weighed without their tendons to quantify muscle mass and to allow the calculation of the maximum specific Po (N/cm^2).
Male mdx mice (C57BL/10ScSnJ) were purchased from Jackson Laboratories. Mdx mice were then injected i.p. with OPG (0.3 mg/kg/day) for 10 days during the 3rd and 4th week of life. Body weight were measured every 2 days and drug volume were adjusted accordingly. This concentration of OPG is selected because it is known to inhibit RANKL and bone resorption.
(§2) SOL and EDL muscles from male wild type and mdx mice were dissected and contractile properties analyzed at 4 weeks of age.

A further series deals with C57BL/10J mice. Kind of series: Contractile and physical properties of SOL and EDL muscles of C57BL/10J control mice injected with OPG. Type of series: in vivo. The conditions noted are these: OPG 0.3 mg/kg/day i.p. 10 days, mean +/- sem.
From the text: as §1, §2

Series [3] has as its system C2C12 myotubes. In words: Ca2+ concentration in myotubes measured with fluo-4. Type of series: cell-based, mouse. The conditions noted are these: RANKL 100 ng/ml, 10 min; myotubes 5 days in differentiation medium. How it is done:
FIG. 17: RANK/RANKL interaction influences Ca^2+ homeostasis and activates different cell signaling pathways. […] Data are presented as mean+/−sem.
C2C12 myotubes fully differentiated were incubated with fluo-4 to measure Ca^2+ concentration. C2C12 Myotubes were then exposed to RANKL (100 ng/ml) for 10 min. […] (FIG. 17A). Serca activity in sham and denervated RANK^del/fl compared to sham and denervated RANK^fl/fl EDL muscles were then measured by spectrofluorimetric analysis. SERCA activity increased by more than 2-fold in EDL muscles from sham and denervated RANK^del/fl mice (FIG. 17B). […] Graph representing the difference in the expression of SERCA isoforms for each fiber type for SOL and EDL muscles compared to sham RANK^fl/fl mice. (FIG. 17E). […] Data are presented as mean+/−sem.

Setting [4] is: EDL muscle ex vivo, OPG 0.3 mg/kg/day i.p. 10 days.
[5] abbreviates: SOL muscle ex vivo, OPG 0.3 mg/kg/day i.p. 10 days.

“Also recorded” adds a separate entry of the source.

Turning to `C[C@@H]1C[C@H]2[C@@H]3CCC4=CC(=O)C=C[C@]4(C)[C@@]3(F)[C@@H](O)C[C@]2(C)[C@@]1(O)C(=O)CO` [DEX, dexamethasone, reference compound], the “decrease in myotube diameter relative to control myotubes” value in the series with C2C12 myotubes [1] (1 mM DEX, after 48 h) is reported as 15-20%.

Consider “Denosumab: full human antibody that shares the pharmalogical attributes of OPG; RANKL antagonist”, for which, in series [2], the “half-life relative to OPG” value is reported as “significant longer half-life”.

B1: OPG: Osteoprotegerin, binds RANKL and inhibits the RANK/RANKL interaction; bought from R&D systems (Catalog number:459-MO) (protein, UniProt O08712 22-401, looked up)
Tumor necrosis factor …: ETLPPKYLHYDPETGHQLLCDKCAPGTYLKQHCTVRRKTLCVPCPDHSYTDSWHTSDECVYCSPVCKELQSVKQECNRTHNRVCECEEGRYLEIEFCLKHRSCPPGSGVVQAGTPERNTVCKKCPDGFFSGETSSKAPCIKHTNCSTFGLLLIQKGNATHDNVCSGNREATQKCGIDVTLCEEAFFRFAVPTKIIPNWLSVLVDSLPGTKVNAESVERIKRRHSSQEQTFQLLKLWKHQNRDQEMVKKIIQDIDLCESSVQRHLGHSNLTTEQLLALMESLPGKKISPEEIERTRKTCKSSEQLLKLLSLWRIKNGDQDTLKGLMYALKHLKTSHFPKTVTHSLRKTMRFLHSFTMYRLYQKLFLEMIGNQVQSVKISCL
With B1, the “half relaxation time (½ RT)” value in the series with mdx mice (setting [4]) turned out to be 20.67 ± 2.18 ms; in the series with mdx mice (setting [5]) it was 38 ± 3.3 ms; in the series with C57BL/10J mice (EDL muscle ex vivo) it was 20.3 ± 2.4 ms; with C57BL/10J mice (SOL muscle ex vivo) it was 46.8 ± 5.7 ms. For the same molecule, the “maximal absolute force (Po)” value is 10.3 ± 1.3 g in the series on mdx mice (setting [4]), 8.02 ± 2.99 g with mdx mice (setting [5]), 14.53 ± 3.44 g in the series on C57BL/10J mice (EDL muscle ex vivo) and 10.79 ± 0.27 g with C57BL/10J mice (SOL muscle ex vivo). In addition, the “maximal twitch tension (Pt)” value is given as 2.01 ± 0.2 g in the series on mdx mice (setting [4]), 1.2 ± 0.18 g in the series with mdx mice (setting [5]), 2.52 ± 0.26 g in the series with C57BL/10J mice (EDL muscle ex vivo) and 1.8 ± 0.06 g in the series on C57BL/10J mice (SOL muscle ex vivo). The “time to peak tension (TPT)” value in the series on mdx mice (setting [4]) was determined as 29.75 ± 7.47 ms; in the series on mdx mice (setting [5]), 35.2 ± 2.43 ms; in the series with C57BL/10J mice (EDL muscle ex vivo) it was 25.8 ± 2.6 ms; in the series with C57BL/10J mice (SOL muscle ex vivo), 50.75 ± 3.83 ms. Further, the Muscle weight in the series on mdx mice (EDL muscle, OPG 0.3 mg/kg/day i.p. 10 days) amounted to 4.96 ± 0.93 mg; with mdx mice (SOL muscle, OPG 0.3 mg/kg/day i.p. 10 days) it was 4.90 ± 0.72 mg; with C57BL/10J mice (EDL muscle) it was 4.18 ± 0.25 mg; in the series with C57BL/10J mice (SOL muscle), 3.73 ± 0.20 mg. In addition, the “increase of maximum force production (maximum specific tetanic force) of EDL muscles” value with mdx mice (male mdx mice, OPG 0.3 mg/kg daily 10 days from day 18 after birth, vs PBS) is “more than 200%”. The “specific muscle force of EDL muscles” value in the series on mdx mice (young mdx mice (28 days), OPG 0.3 mg/kg/day i.p. 10 days, compared to PBS) is given as “Specific muscle force preservation is also observed”. In addition, in the series on C2C12 myotubes [1] (1 mM DEX, >100 ng/ml of OPG, preliminary results), the “effect on DEX-induced atrophic and phenotype change process in myotubes” value is “reversed the atrophic and phenotype change process”. For the same molecule, in the series with C2C12 myotubes [1] (DEX 1,000 nM, OPG 100 ng/ml, 24 and 48 h (FIG. 9)), the “effect on DEX-induced myotube atrophy” value was “protects against DEX-induced myotube atrophy; also recorded: totally reversed the atrophic process; also recorded: prevents myotube atrophy”.

B2: RANKL: receptor-activator of nuclear factor κβ ligand, added at 100 ng/ml to C2C12 myotubes (protein, UniProt O35235 139-316, looked up)
Tumor necrosis factor ligand …: FSGAPAMMEGSWLDVAQRGKPEAQPFAHLTINAASIPSGSHKVTLSSWYHDRGWAKISNMTLSNGKLRVNQDGFYYLYANICFRHHETSGSVPTDYLQLMVYVVKTSIKIPSSHNLMKGGSTKNWSGNSEFHFYSINVGGFFKLRAGEEISIQVSNPSLLDPDQDATYFGAFKVQDID
For the molecule B2, the “effect on DEX-induced myotube atrophy” value in the series with C2C12 myotubes [1] (RANKL with DEX) is recorded as “exacerbates”. In addition, the “cytosolic Ca2+ (mean fluorescence intensity of fluo-4)” value in the series on C2C12 myotubes [3] is listed as “increased the release of cytosolic Ca^2+; also recorded: increased mean fluorescence intensity of fluo-4”.
